Data taken from the supplement of paper PMC9233669.
Variants at the floor of the assay were thinned out.

Tests used:
biotinyl-Phe-oxazolone = test: self-aminoacylation, catalytic enhancement (BFO) (fold over background); higher = more active; k-Seq, kA / k0A0; sequences stand for … in GGGAAUGGAUCCACAUCUACGAAUUC…UUCACUGCAGACUUGACGAAGCUG
Outline: (§1)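 Working in 50 μL HEPES/NaCl/KCl/MgCl2/CaCl2 buffer with 5% acetonitrile at pH 6.9–7.0, mutagenized RNA pools (0.43 μM; 21-nt variable region) were reacted with 2–1250 μM of each biotinyl-aminoacyl-oxazolone for 90 minutes at room temperature. Streptavidin capture followed, with quantification by triplicate qPCR and Illumina sequencing. Catalytic enhancement is reported as median kA over the uncatalyzed rate, the low-activity peak of a bimodal Gaussian fit to the data.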

biotinyl-Trp-oxazolone = test: self-aminoacylation, catalytic enhancement (BWO) (fold over background); higher = more active; k-Seq, kA / k0A0; sequences stand for … in GGGAAUGGAUCCACAUCUACGAAUUC…UUCACUGCAGACUUGACGAAGCUG
Outline: as §1

biotinyl-Met-oxazolone = test: self-aminoacylation, catalytic enhancement (BMO) (fold over background); higher = more active; k-Seq, kA / k0A0; sequences stand for … in GGGAAUGGAUCCACAUCUACGAAUUC…UUCACUGCAGACUUGACGAAGCUG
Outline: as §1

biotinyl-Ile-oxazolone = test: self-aminoacylation, catalytic enhancement (BIO) (fold over background); higher = more active; k-Seq, kA / k0A0; sequences stand for … in GGGAAUGGAUCCACAUCUACGAAUUC…UUCACUGCAGACUUGACGAAGCUG
Outline: as §1

biotinyl-Leu-oxazolone = test: self-aminoacylation, catalytic enhancement (BLO) (fold over background); higher = more active; k-Seq, kA / k0A0; sequences stand for … in GGGAAUGGAUCCACAUCUACGAAUUC…UUCACUGCAGACUUGACGAAGCUG
Outline: as §1

biotinyl-Val-oxazolone = test: self-aminoacylation, catalytic enhancement (BVO) (fold over background); higher = more active; k-Seq, kA / k0A0; sequences stand for … in GGGAAUGGAUCCACAUCUACGAAUUC…UUCACUGCAGACUUGACGAAGCUG
Outline: as §1

Sequence	self-aminoacylation (biotinyl-Phe-oxazolone)	self-aminoacylation (biotinyl-Trp-oxazolone)	self-aminoacylation (biotinyl-Met-oxazolone)	self-aminoacylation (biotinyl-Ile-oxazolone)	self-aminoacylation (biotinyl-Leu-oxazolone)	self-aminoacylation (biotinyl-Val-oxazolone)
AAGUUUGCUAAUAGUCCCAUG [Fam3.1 aminoacylation ribozyme variant]	0.885	1.19	0.887	0.978	0.89	1.13
AAGUUUGCUAAUAGUCCCCAG [Fam3.1 aminoacylation ribozyme variant]	1.27	1.69	1.01	1	0.928	0.901
AAGUUUGCUAAUAGUCGAAAG [Fam3.1 aminoacylation ribozyme variant]	17.9	5.4	1.47	1.38	1.14	1.22
AAGUUUGCUAAUAGUCGCAAU [Fam3.1 aminoacylation ribozyme variant]	1.68	1.22	1.25	1.42	1.19	1.26
AAGUUUGCUAAUAGUCGCAUA [Fam3.1 aminoacylation ribozyme variant]	1.58	1.23	0.936	1.21	0.954	1.22
AAGUUUGCUAAUAGUCGCGAC [Fam3.1 aminoacylation ribozyme variant]	1.05	1.19	1	0.944	0.907	0.909
AAGUUUGCUAAUAGUCGCGGG [Fam3.1 aminoacylation ribozyme variant]	19.6	4.82	4.13	4.43	4.5	3.77
AAGUUUGCUAAUAGUCGCUAA [Fam3.1 aminoacylation ribozyme variant]	1.96	1.53	1.13	1.33	1.2	1.21
AAGUUUGCUAAUAGUCGCUCG [Fam3.1 aminoacylation ribozyme variant]	0.809	0.853	0.815	0.706	0.647	0.657
AAGUUUGCUAAUAGUCGUUAG [Fam3.1 aminoacylation ribozyme variant]	2.27	1.05	0.676	0.822	0.801	1.07
AAGUUUGCUAAUAGUCUAAAG [Fam3.1 aminoacylation ribozyme variant]	5.62	1.9	0.959	1.28	0.882	1.28
AAGUUUGCUAAUAGUCUGAAG [Fam3.1 aminoacylation ribozyme variant]	3.77	1.34	0.971	1.01	0.996	1.07
AAGUUUGCUAAUAGUCUUAAG [Fam3.1 aminoacylation ribozyme variant]	25.7	6.3	1.24	1.16	1.11	1.11
AAGUUUGCUAAUAGUGGCAAC [Fam3.1 aminoacylation ribozyme variant]	0.826	0.575	0.737	0.805	0.783	0.822
AAGUUUGCUAAUAGUGGCAUG [Fam3.1 aminoacylation ribozyme variant]	1.1	0.862	0.821	0.823	0.754	0.772
AAGUUUGCUAAUAGUGGGAAG [Fam3.1 aminoacylation ribozyme variant]	1.48	0.598	0.971	0.841	0.876	1.03
AAGUUUGCUAAUAGUUGCAAU [Fam3.1 aminoacylation ribozyme variant]	1.25	1.29	1.15	1.26	0.88	1.31
AAGUUUGCUAAUAGUUGCACG [Fam3.1 aminoacylation ribozyme variant]	1.38	1.75	1.31	1.11	1.1	1.14
AAGUUUGCUAAUAGUUGCAUG [Fam3.1 aminoacylation ribozyme variant]	1.14	0.685	0.831	0.96	1.14	0.934
AAGUUUGCUAAUAGUUGUAAG [Fam3.1 aminoacylation ribozyme variant]	2.23	1.55	1.48	1.29	1.12	1.28
AAGUUUGCUAAUAUCCGCAAG [Fam3.1 aminoacylation ribozyme variant]	1.18	0.739	0.725	0.911	0.845	0.886
AAGUUUGCUAAUCGACGCAAG [Fam3.1 aminoacylation ribozyme variant]	0.783	0.72	0.581	0.534	0.477	0.547
AAGUUUGCUAAUCGUCACAAG [Fam3.1 aminoacylation ribozyme variant]	1.3	0.982	0.828	0.966	0.881	0.978
AAGUUUGCUAAUCGUCGCACG [Fam3.1 aminoacylation ribozyme variant]	0.692	0.937	0.842	0.983	1.16	0.873
AAGUUUGCUAAUCGUCGCAUG [Fam3.1 aminoacylation ribozyme variant]	0.667	0.804	0.922	1.03	0.957	0.923
AAGUUUGCUAAUCGUGGCAAG [Fam3.1 aminoacylation ribozyme variant]	0.796	0.625	0.604	0.713	0.521	0.813
